According to patent US20140275487A1:

Molecular target: T4L-β2AR (N-terminally fused T4 lysozyme-β2AR construct truncated in position 365), BI-167107 bound (human)
Test: crystal structure

Substance “Gαs subunit of the heterotrimeric Gs protein (from UniProt P04896 2-394)” has a buried surface for GαsRas of 1300 A^2, a buried surface for the β2AR of 1280 A^2 and a total buried surface of the β2AR-GαsRas interface of 2580 A^2.
